Measurements as given in paper PMC10333338, “Mechanism of ATP hydrolysis dependent rotation of bacterial ATP synthase” (Nature Communications, 2023).

Target: T1, α subunit of the F1 domain of FoF1 ATP synthase from Geobacillus stearothermophilus (Bacillus PS3 sp.) (G. stearothermophilus (Bacillus PS3 sp.), UniProt P09219 1-502)
T1 construct: ATP synthase subunit alpha, Bacillus PS3 sp; (G. stearothermophilus); subunit of the ΔεCT-FoF1 complex; Three copies stand in the F1 domain (α3β3γ); The complex was purified on Ni-NTA; also called αE; αT
T1 sequence (P09219 whole entry, the tested form may be a part): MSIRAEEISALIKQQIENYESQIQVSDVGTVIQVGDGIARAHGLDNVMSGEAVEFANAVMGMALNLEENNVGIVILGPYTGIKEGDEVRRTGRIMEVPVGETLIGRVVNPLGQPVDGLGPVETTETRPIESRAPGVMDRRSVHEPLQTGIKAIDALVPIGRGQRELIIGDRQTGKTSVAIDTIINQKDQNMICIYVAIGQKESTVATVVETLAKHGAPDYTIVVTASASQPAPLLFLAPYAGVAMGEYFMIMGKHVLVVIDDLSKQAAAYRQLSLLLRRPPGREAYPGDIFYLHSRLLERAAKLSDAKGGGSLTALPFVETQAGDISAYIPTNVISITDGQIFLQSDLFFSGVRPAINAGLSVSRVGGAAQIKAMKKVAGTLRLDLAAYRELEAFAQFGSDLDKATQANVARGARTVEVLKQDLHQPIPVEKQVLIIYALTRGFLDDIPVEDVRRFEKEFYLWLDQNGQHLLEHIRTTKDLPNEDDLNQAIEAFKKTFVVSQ
Experiment: cryo-EM structure; purified ΔεCT-FoF1 in DDM, 9 µM enzyme; 26 mM ATP-Mg, 20 s at 25 °C (high [ATP], nucleotide-depleted enzyme) or 25 µM ATP with pyruvate kinase and PEP, 60 s at 25 °C (low [ATP]); flash frozen; focused refinement on the F1 domain
Conditions: both partners purified

B1: γ subunit of the F1 domain of FoF1 ATP synthase from Geobacillus stearothermophilus (Bacillus PS3 sp.) (natural protein, G. stearothermophilus (Bacillus PS3 sp.), UniProt P09222 5-286, looked up)
chain: ASLRDIKTRINATKKTSQITKAMEMVLTSKLNRAEKREIVRPYMEKIQEVVANVALAARASHPMLVSRPVKKTGYLVITSDRGLAGAYNSNVLRLVYQTIQKRHASPDEYAIIVIGRVGLSFFRKRNMPVILDITRLPDQPSFADIKEIARKTVGLFADGTFDELYMYYNHYVSAIQQEVTERKLLPLTDLAENKQRTVYEFEPSQEEILDVLLPQYAESLIYGALLDAKASEHAARMTAMKNATDNANELIRTLTLSYNRARQAAITQEITEIVAGANALQ
notes: ATP synthase gamma chain, Bacillus PS3 sp; (G. stearothermophilus); subunit of the ΔεCT-FoF1 complex; One copy in the centre of α3β3; also called γ-stalk; central γ subunit
Does B1 bind?
Result: binds
